Test results: the nanobody polyreactivity screen of Harvey et al. (2022)

Test: yeast display, Sf9 membrane polyspecificity reagent, FACS + sequencing; frameworks hold sequencing errors
Outline: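 In a synthetic yeast display library (Saccharomyces cerevisiae BJ5465), nanobody expression was induced with galactose for 36–48 hours. FACS gates were set low and high (top ~1%) using anti-HA fluorescence for expression and streptavidin fluorescence for binding of the Sf9 membrane reagent. Each polyreactivity label is drawn from the gate of origin.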

Row | Sequence | polyreactivity (PSR sort gate)
1 | QVQLVESGGGLVQAGGSLRLSCAASGRTFYRYVMAWYRQAPRKERELVADITRSGGSTYYADSVKGRFTISRDNAKNTVYLQMNSLKPEDTAVYYCNKRYRVWFDYWGQGTQVTVSS | high polyreactivity
2 | QVQLVESGGGLVQAGGSLRLSCAASGRTFYRYVMGWYRQAPGKERALVAAITWSGGSTYYADSVKGRFTISRDNAKNTVYLQMNSLKPEDTAVYYCAKGLYDASRRYYYWGQGTQVTVSS | high polyreactivity
3 | QVQLVESGGGLVQAGGSLRLSCAASGRTFYSNAMGWYRQAPGKERELVAAITSTDDSTYYADSVKGRFTISRDNAKNTVNLQMYSLKPEYTAVYYCNTDGLIAIRGLWWFEFDYWGQGTQVTVSS | low polyreactivity
4 | QVQLVESGGGLVQAGGSLRLSCAASGRTFYSNAMGWYRQAPGKERELVATITRRGGSTYYADSVKGRFTISRDNAKNTVYLQMNSLKPEDTAVYYCNAVSSKGNPYYYWGQGTQVTVSS | high polyreactivity
5 | QVQLVESGGGLVQAGGSLRLSCAASGRTFYSYAMGWYRQAPGKEREFVAAINWSGTSTYADSVKGRFTISRDNAKNTVYLQMNSLKPEDTAVSYCAKTYRTLVRYWGQPFGYWGQGTQVTVSS | high polyreactivity
6 | QVQLVESGGGLVQAGGSLRLSCAASGRTFYSYAMGWYRQAPGKERELVAAINSGGDTYYADSVKGRFTISRDNAKNSVYLQMNSLKAEDSAVYYCAADYYWEMDSWGQGTQVTVSS | low polyreactivity
7 | QVQLVESGGGLVQAGGSLRLSCAASGRTFYSYAMGWYRQAPGKERELVAAISYTGASTFYADSVKGRFTISRDNAKNTVYLQMNSLKPEDTAVYYCAARKVRFGVDYWGPGTQVTVSS | high polyreactivity
8 | QVQLVESGGGLVQAGGSLRLSCAASGRTFYSYAMGWYRQAPGKERELVASISSSGASTYYADSVKGRFTISRDNAKNTVYLQMNSLKPEDTAVYYCNSVWRTSFITIYGFDYWGQGTQVTVSS | high polyreactivity
9 | QVQLVESGGGLVQAGGSLRLSCAASGRTFYSYAMGWYRQAPGKEREWVATITNGDTTNYADSVKGRFTISRDNAKNTVYLQMNSLKPEDTAVYYCAKDISPGYDEYDYWGQGTQVTVSS | low polyreactivity
10 | QVQLVESGGGLVQAGGSLRLSCAASGRTFYSYAMGWYSQAPGKERELVATISSNADGTYYADSVKGRFTISRDNAKNTVYLQMNSLKPEDTAVYYCAATYRRSHRYNYWGQGTQVTVSS | high polyreactivity
11 | QVQLVESGGGLVQAGGSLRLSCAASGRTFYSYTMGWYRQAPGKEREFVAAISSSGSSTYYADSVKGRFTISRDNAKYTVYLQMNSLKPEDTAVYYCAATRYRYPGYFRYDYWGQGTQVTVSS | high polyreactivity
12 | QVQLVESGGGLVQAGGSLRLSCAASGRTFYSYVMGWYRQAPGKEREFVADISQSGGRTFYSDSVKGRFTISRDNAKNTVYLQMNSLKPEDTAVYYCAAAKRGSYARGYYWGQGTQVTVSS | low polyreactivity
13 | QVQLVESGGGLVQAGGSLRLSCAASGRTFYSYVMGWYRQAPGKEREFVADISQSGGRTYYADSVKGRFTISRDNAKNTVYLQMNSLKPEDTAVYYCAAAKRGSYARGYYWGQGTQVTVSS | low polyreactivity
14 | QVQLVESGGGLVQAGGSLRLSCAASGRTFYSYVMGWYRQAPGKERELVAAIRSSGRTYYADSVKGRFTISRDNAKNTVYLQMNRLTPEDTAVYYCAAYAWVSGSLYDSWGQGTQVTVSS | high polyreactivity
15 | QVQLVESGGGLVQAGGSLRLSCAASGRTFYTNAMGWYRQAAGKERELVAVISRGGTTYYADSVKGRFTISRDNAKNTVYLQMNSLKPEDTAVYYCAKQRPSGDSSSQMGSWGQGTQVTVSS | low polyreactivity
16 | QVQLVESGGGLVQAGGSLRLSCAASGRTFYTNAMGWYRQAPGKERELVASISGSGGSTYYADSVKGRFTISRDNGKNTVYLQMNSLNPEDTAVYYCAADPAPTVEFGKYDYWGQGTQVTVSS | low polyreactivity
17 | QVQLVESGGGLVQAGGSLRLSCAASGRTFYTNTMGWYRQAPGKERELVAAISYSGSSTYYADSVKGRFTISRDNAKNTVYLQMNCLKPEDTAVYYCNAVRYYRYYYWGQGTQVTVSS | low polyreactivity
18 | QVQLVESGGGLVQAGGSLRLSCAASGRTFYTYAMGWYRQAPGKERELVAAISISGSRTYYADSVKGRFTISRDNAKNTVYLQMNSLKPEDTAVYYCAADRSYWAYVFQYVSYGEDYWGQGTQVTVSS | high polyreactivity
19 | QVQLVESGGGLVQAGGSLRLSCAASGRTFYTYAMGWYRQAPGKERELVAAISSGGSTYYADSVKGRFTISRDNAKNTVYLQMNSLKPEDTAVYYCAARYSKRVWYGYWGQGTQVTVSS | high polyreactivity
20 | QVQLVESGGGLVQAGGSLRLSCAASGRTFYTYAMGWYRQAPGKERELVASISRSGSGTFYADSVKGRFTISRDNAKNTVYLQMNSLKPEDTAVYYCNAVSAAKIPFQKYGYWGQGTQVTVSS | high polyreactivity
21 | QVQLVESGGGLVQAGGSLRLSCAASGRTFYVNALGWYRQAPGKERELVAGISFSDGSTYYADSVKGRFTISRDNAKNTVYLQMNSLKPEDTAVYYCATVGAFDIYYGYGYWGQGTQVTVSS | low polyreactivity
22 | QVQLVESGGGLVQAGGSLRLSCAASGRTFYVNAMGWYRQAPGKERELVAAISRSGRTNYADSVKGRFTISRDNAKNTVYLQMNSLKPEDTAVYYCAAALSNVRNVRSPYDYWGQGTQVTVSS | high polyreactivity

Row | Sequence | polyreactivity (PSR sort gate)
23 | QVQLVESGGGLVQAGGSLRLSCAASGRTFYVNAMGWYRQAPGKERELVARISSSGITYYADSVKGRFTISRDNAKNTVYLQMNSLKPEDTAVYYCAAEYRSYSTLNRKFWYSPEYDYWGQGTQVTVSS | low polyreactivity
24 | QVQLVESGGGLVQAGGSLRLSCAASGRTFYVNAMGWYRQAPGKETELVAAISSGSSTDYADSVKGRFTISRDNAKNTVYLQMNSLKPEDTAVYYCAKRWRRRFVDVWSLYDYWGQGTQVTVSS | low polyreactivity
25 | QVQLVESGGGLVQAGGSLRLSCAASGRTFYVNTMGWYRQAPGKERELVAAITSRGGRTHYADSVKGRFTISRDNAKNNVYLQMNSLKPEDTAVYYCAAKITAYWRYISDYGYWGQGTQVTVSS | high polyreactivity
26 | QVQLVESGGGLVQAGGSLRLSCAASGRTFYVNTMGWYRQATGKETELVARITRGGSTYYADSVKGRFTISRDNAKNTVYLQMNSLKPEDTAVYYCATDHFPVYSTHVIYEFDYWGQGTQVTVSS | low polyreactivity
27 | QVQLVESGGGLVQAGGSLRLSCAASGRTFYVYAMGWYRQAPGKERELVAAITRGGRTKYADSVKGRFTISRDNAKNTVYLQMNSLKPEDTAVYYCATVASPNRGGVSRYDYWGQGTQVTVSS | high polyreactivity
28 | QVQLVESGGGLVQAGGSLRLSCAASGRTFYWNAMGWSRQAPGKERELVASINCGGSTYYADSVKGRFTISRDNAKNTVYLQMNSLKPEGTAVYYCNAESYEFHRAWGDYDYWGQGTQVTVSS | low polyreactivity
29 | QVQLVESGGGLVQAGGSLRLSCAASGRTFYWNAMGWYRQAPGKERELVAAIRWRGGNTYYADSVKGRFTISRDNAKNTVYLQMNSLKPEDTAVYYCAAAGGKSEMGYWGQGTQVTVSS | high polyreactivity
30 | QVQLVESGGGLVQAGGSLRLSCAASGRTFYWNAMGWYRQAPGKERELVAAISWRGGSTYYADSVKGRFTISRDNAKNTVYLQMNSLKPEDTAVYYCAAYHSREYDYWGQGTQVTVSS | high polyreactivity
31 | QVQLVESGGGLVQAGGSLRLSCAASGRTFYWNTMGWYRQAPGKERELVAAINYSGGSTYYADSVKGRFTISRDNAKNTVYLQMNSLKPEDTAVYYCAAYFHGYKSQHRARSEYNYWGQGTQVTVSS | high polyreactivity
32 | QVQLVESGGGLVQAGGSLRLSCAASGRTFYWYAMGWYRQAPGKERELVAAIRKTDTSTYYADSVKGRFTISRDNAKNTVYLQMNSLKPEDTAVYYCAARSTYSSGKYGYKYDYWGQGTQVTVSS | high polyreactivity
33 | QVQLVESGGGLVQAGGSLRLSCAASGRTFYYAMGWYRQAPGTERELVATITSGGSTNYADSVKGRFTISRDNAKNTVYLQMNSLKPEDTAVYYCNRDIPPGNYYKALYYYWGQGTQVTVSS | low polyreactivity
34 | QVQLVESGGGLVQAGGSLRLSCAASGRTFYYNAMGGYRPAPGKERELVATITWTGDSTYADSVKGRFTISRDNAKNTVYLQMISLKPEDTAVYYCAAGKPVILTGDYDYWGQGTQVTVSS | low polyreactivity
35 | QVQLVESGGGLVQAGGSLRLSCAASGRTFYYNAMGWYRQAPGKEREFVAAIRYSGGITYYADSVKGRFTISRDNAKNTVYLQMNSQKPEDTAVYYCAADYVSRRYYYWGQGTQVTVSS | high polyreactivity
36 | QVQLVESGGGLVQAGGSLRLSCAASGRTFYYNAMGWYRQAPGKEREFVAGISYGGTTTYYADSVKGRFTISRDNAKNTVYLQMNSLKPEDTAVYYCAAGYTWRQSWYPFDYWGQGTQVTVSS | high polyreactivity
37 | QVQLVESGGGLVQAGGSLRLSCAASGRTFYYNAMGWYRQAPGKERELVAAITSRGTTYYADSVKGRFTISRDNAKNTVYLQMNSLKPEDTAVYYCAALALYRAQGNLDYWGQGTQVTVSS | high polyreactivity
38 | QVQLVESGGGLVQAGGSLRLSCAASGRTFYYYAMGWNRQAPGKEREFVASITWRGGRTYYADSVKGRFTISRDYAKNTVYLQMNSLKPEDTAVYYCAADGSYAIGGYGYWGQGTQVTVSS | high polyreactivity
39 | QVQLVESGGGLVQAGGSLRLSCAASGRTFYYYAMGWYRQAPGKEREFVAAIRFSGGNTYYADSVKGRFTISRDNAKNTVYLQMNSLKPVDTAVYYCAARRLLYKYWTGGPYDYWGQGTQVTVSS | high polyreactivity
40 | QVQLVESGGGLVQAGGSLRLSCAASGRTFYYYAMGWYRQAPGKERELVAAIRWRGGRTYADSVKGRFTISRDNAKNTVYLQMNSLKQEDTAVYYCNAGFHYPSTYWIYYSGGNYWGQGTQVTVSS | high polyreactivity
41 | QVQLVESGGGLVQAGGSLRLSCAASGRTFYYYAMGWYRQAPGKERELVAAISSRGGRTYYADSVKGRFTISRDNAKNTVYLQMNSLKPEDTAVYYCAKVVAYYDRDSWGQGTQVTVSS | high polyreactivity
42 | QVQLVESGGGLVQAGGSLRLSCAASGRTFYYYAMGWYRQAPGKERELVAAISWGGGRTYYADSVKGRFTISRDNAKNTVYLQMNSLKPEDTAVYYCNAVRTTPSGSLPLAYDYWGQGTQVTVSS | low polyreactivity
43 | QVQLVESGGGLVQAGGSLRLSCAASGRTFYYYAMGWYRQAPGKERELVAAISWRGGSTYYADSVKGRFTISRDNAKNTVYLQMNSLKPEDTAVYYCAVYTTYSRYRGYDYWGQGTQVTVSS | high polyreactivity
